Measured values as given in PMC6791372 (ACS chemical biology, 2019).

Target: the molecule itself
Assay: crystal structure

B1: MetA crystallisation construct (C-terminal residues 297-309 truncated, P257I) (enzyme, E. coli, UniProt P07623 2-296, looked up)
chain: PIRVPDELPAVNFLREENVFVMTTSRASGQEIRPLKVLILNLMPKKIETENQFLRLLSNSPLQVDIQLLRIDSRESRNTPAEHLNNFYCNFEDIQDQNFDGLIVTGAPLGLVEFNDVAYWPQIKQVLEWSKDHVTSTLFVCWAVQAALNILYGIPKQTRTEKLSGVYEHHILHPHALLTRGFDDSFLAPHSRYADFPAALIRDYTDLEILAETEEGDAYLFASKDKRIAFVTGHPEYDAQTLAQEFFRDVEAGLDIDVPYNYFPHNDPQNTPRASWRSHGNLLFTNWLNYYVYQI
B1: binds.
